Among the data in article PMC7291239 are crosslinked oligomers, percent of wild type (% of wild type) values, retold here.

Assay [1] addresses AnxA2 6x (AnxA2 A66E with K81A, E189K, R196S, K206A, K212S, E219K, alkylated at Cys-8) (human) (UniProt P07355). The experiment in a line: cross-linking; Ca2+/membrane sample: AnxA2 (60 ug) bound to LUVs (100 nm, POPC:DOPC:Chol:POPS 40:20:20:20, 100 ug) with 1 mM CaCl2 in HBS pH 7.4, 0.3 mM Biotin3xNHSX-Linker added after 30 min for 30 min; 10% SDS-PAGE, Coomassie; oligomer bands above the dimer position quantified against the monomer band.

The target of assay [2] is AnxA2 10x (AnxA2 A66E 6x with R36S, V53A, T54A, K328A in addition, alkylated at Cys-8) (human) (UniProt P07355). Described as above.

As for “AnxA2 6x (AnxA2 A66E with K81A, E189K, R196S, K206A, K212S, E219K, alkylated at Cys-8) (from UniProt P07355 21-339) (natural protein)”, the crosslinked oligomers, percent of wild type (% of wild type) in assay [1] is 48.

Consider “AnxA2 10x (AnxA2 A66E 6x with R36S, V53A, T54A, K328A in addition, alkylated at Cys-8) (from UniProt P07355 21-339) (natural protein)”, for which, in assay [2], the crosslinked oligomers, percent of wild type (% of wild type) was 33.
